This passage reports abundance fitness results from the Human Domainome abundance scans (Beltran et al. 2025).

± gives the uncertainty stated by the source.

B1: Ras GTPase-activating protein 1, residues 281 to 341; numbered along this chain, P20936 (parent)
chain: RRRVRAILPYTKVPDTDEISFLKGDMFIVHNELEDGWMWVTNLRTDEQGLIVEDLVEEVGR

In this data set the parent is B1. Nature of the data set: abundance fitness (aPCA) (normalised: wild type 0, dead -1); higher = more abundant; growth selection in yeast, the domain comes from the species named. Conditions: Homo sapiens.
Turning to R44Y, the abundance fitness was -0.523 ± 0.035.

With R44H, the abundance fitness is -0.542 ± 0.039.

Consider R44S, for which the abundance fitness is -0.207 ± 0.026.

Consider R44M, for which the abundance fitness was -0.287 ± 0.054.

Take R44L: the abundance fitness is -0.905 ± 0.052.

I7K: the abundance fitness was found to be 0.037 ± 0.072.

On to I7A, for which the abundance fitness was -0.63 ± 0.054.

In the case of I7H, the abundance fitness was -0.305 ± 0.036.

In the case of T11L, the abundance fitness was -0.169 ± 0.028.

In the case of T11S, the abundance fitness was -0.05 ± 0.024.

As for T11R, the abundance fitness is -0.126 ± 0.028.

In the case of T11C, the abundance fitness was -0.028 ± 0.028.

T11G: the abundance fitness is -0.416 ± 0.033.

Consider T11W, for which the abundance fitness was -0.213 ± 0.049.

As for T11A, the abundance fitness is -0.05 ± 0.035.

As for V13C, the abundance fitness came to 0.015 ± 0.028.

As for V13T, the abundance fitness was determined as 0.084 ± 0.03.

In the case of V13Y, the abundance fitness is -0.137 ± 0.028.

Turning to V13H, the abundance fitness was 0.012 ± 0.03.

For V13D, the abundance fitness is -0.047 ± 0.033.

For V13G, the abundance fitness is -0.04 ± 0.025.

V13L: the abundance fitness is -0.053 ± 0.029.

Turning to I28V, the abundance fitness is -0.016 ± 0.021.

As for I28W, the abundance fitness is -0.136 ± 0.03.

As for I28E, the abundance fitness turned out to be 0.098 ± 0.034.

With I28N, the abundance fitness was -0.102 ± 0.022.

Consider P14F, for which the abundance fitness was -0.348 ± 0.031.

Take P14S: the abundance fitness is -0.085 ± 0.025.

With G49C, the abundance fitness was -0.784 ± 0.039.

As to G49Q, the abundance fitness was -1.01 ± 0.12.

As to G49I, the abundance fitness is -0.874 ± 0.048.

G49Y: the abundance fitness was -0.936 ± 0.056.

On to G49W, for which the abundance fitness is -1.09 ± 0.18.

On to G49F, for which the abundance fitness was -0.754 ± 0.041.

On to G49D, for which the abundance fitness was -0.836 ± 0.05.

As to V40Q, the abundance fitness is -1.01 ± 0.21.

With V40C, the abundance fitness was -0.102 ± 0.027.

Take V40R: the abundance fitness is -0.836 ± 0.048.

With V40P, the abundance fitness was -0.77 ± 0.073.

Regarding V40F, the abundance fitness is -0.881 ± 0.045.

For the variant V40H, the abundance fitness is -0.858 ± 0.063.

Turning to W39F, the abundance fitness is -0.034 ± 0.021.

Turning to W39E, the abundance fitness amounted to 0.003 ± 0.032.

W39C: the abundance fitness was -0.187 ± 0.021.

Turning to W39R, the abundance fitness was -0.03 ± 0.023.

Take W39N: the abundance fitness was -0.134 ± 0.022.

Turning to W39Y, the abundance fitness is -0.009 ± 0.023.

For N31P, the abundance fitness is -0.841 ± 0.068.

As to N31K, the abundance fitness turned out to be 0.034 ± 0.06.

In the case of N31D, the abundance fitness is 0.046 ± 0.033.

Take N31M: the abundance fitness is -0.044 ± 0.051.

As to N31L, the abundance fitness was -0.174 ± 0.029.

In the case of N31T, the abundance fitness is -0.046 ± 0.03.

As for N31C, the abundance fitness is -0.129 ± 0.027.

On to N31R, for which the abundance fitness was found to be 0.073 ± 0.027.

With N31Y, the abundance fitness is -0.057 ± 0.029.

R5E: the abundance fitness was -0.138 ± 0.056.

Turning to R5V, the abundance fitness is -0.007 ± 0.027.

With R5I, the abundance fitness was -0.055 ± 0.03.

With R5S, the abundance fitness was -0.272 ± 0.027.

With R5Q, the abundance fitness was -0.01 ± 0.057.

On to L50E, for which the abundance fitness is -0.395 ± 0.079.

With L50Y, the abundance fitness was -0.05 ± 0.026.

For the variant L50S, the abundance fitness was -0.07 ± 0.024.

On to L50W, for which the abundance fitness is -0.07 ± 0.051.

As to L50F, the abundance fitness is -0.126 ± 0.026.

For the variant L50A, the abundance fitness was -0.002 ± 0.03.

Turning to L43M, the abundance fitness came to 0.005 ± 0.057.

Regarding L43G, the abundance fitness was -0.694 ± 0.041.

For the variant L43A, the abundance fitness was -0.229 ± 0.043.

As for L43T, the abundance fitness is -0.038 ± 0.036.

Take E47M: the abundance fitness was -0.257 ± 0.042.

Consider E47F, for which the abundance fitness was -0.841 ± 0.04.

For the variant E47K, the abundance fitness was -0.23 ± 0.049.

On to E47T, for which the abundance fitness was -0.263 ± 0.031.

As for E47L, the abundance fitness is -0.417 ± 0.03.

Take E47P: the abundance fitness is -0.993 ± 0.09.

In the case of E47H, the abundance fitness was -0.253 ± 0.032.

Take R1T: the abundance fitness was 0.029 ± 0.04.

Regarding R1L, the abundance fitness is -0.067 ± 0.056.

R1K: the abundance fitness came out at 0.058 ± 0.11.

In the case of R1A, the abundance fitness was -0.129 ± 0.047.

For the variant R1W, the abundance fitness was -0.315 ± 0.059.

With R1I, the abundance fitness worked out at 0.072 ± 0.034.

For the variant D54Y, the abundance fitness is -0.183 ± 0.032.

Consider D54T, for which the abundance fitness is 0.016 ± 0.051.

As to D54C, the abundance fitness was -0.042 ± 0.035.

Regarding D54F, the abundance fitness was -0.262 ± 0.041.

Turning to D54W, the abundance fitness was -0.184 ± 0.059.

For F21G, the abundance fitness was -0.914 ± 0.029.

On to F21M, for which the abundance fitness is -0.538 ± 0.039.

For F21D, the abundance fitness is -0.862 ± 0.03.

On to F21P, for which the abundance fitness is -0.939 ± 0.05.

F21S: the abundance fitness was -0.908 ± 0.028.

With F21R, the abundance fitness was -0.855 ± 0.031.

Take F21C: the abundance fitness was -0.101 ± 0.021.

For G60C, the abundance fitness is -0.081 ± 0.067.

As to G60H, the abundance fitness is -0.054 ± 0.074.

As for G60Q, the abundance fitness is -0.328 ± 0.18.

As for G60P, the abundance fitness is -0.023 ± 0.16.

With A6Q, the abundance fitness is -0.915 ± 0.061.

For the variant A6L, the abundance fitness is -0.896 ± 0.029.

With A6P, the abundance fitness was -1.04 ± 0.05.

For A6H, the abundance fitness is -0.925 ± 0.034.

As for A6S, the abundance fitness was -0.258 ± 0.02.

Consider A6M, for which the abundance fitness is -0.804 ± 0.05.

With A6R, the abundance fitness was -0.908 ± 0.029.

As for T41F, the abundance fitness was -0.88 ± 0.05.

Consider T41M, for which the abundance fitness was -0.362 ± 0.064.

For T41G, the abundance fitness was -0.941 ± 0.046.

For the variant T41Y, the abundance fitness was -0.312 ± 0.033.

On to T41K, for which the abundance fitness is -0.143 ± 0.057.

Take T41A: the abundance fitness is -0.633 ± 0.045.

Take T41N: the abundance fitness was -0.576 ± 0.033.

For the variant L55F, the abundance fitness was 0.015 ± 0.03.

Take L55R: the abundance fitness is -0.034 ± 0.029.

Take L55V: the abundance fitness was -0.175 ± 0.029.

Turning to L55H, the abundance fitness turned out to be 0.059 ± 0.034.

In the case of L55W, the abundance fitness is -0.165 ± 0.041.

L55S: the abundance fitness was -0.018 ± 0.026.

Take E34G: the abundance fitness was -0.035 ± 0.03.

As to E34R, the abundance fitness amounted to 0.065 ± 0.034.

Consider K23R, for which the abundance fitness was -0.094 ± 0.022.

As to K23T, the abundance fitness was -0.058 ± 0.024.

Regarding K23Y, the abundance fitness was -0.269 ± 0.023.

As to K23V, the abundance fitness is -0.13 ± 0.028.

K23Q: the abundance fitness was -0.061 ± 0.043.

As to K23G, the abundance fitness was -0.23 ± 0.025.

On to E58R, for which the abundance fitness was -0.171 ± 0.035.

Turning to E58G, the abundance fitness was -0.156 ± 0.034.

E58F: the abundance fitness was -0.285 ± 0.03.

For E58A, the abundance fitness was -0.134 ± 0.045.

As to E58K, the abundance fitness was -0.156 ± 0.063.

Take E58H: the abundance fitness was -0.156 ± 0.034.

E58V: the abundance fitness is -0.201 ± 0.035.

For the variant F27I, the abundance fitness was -0.864 ± 0.044.

Take F27G: the abundance fitness is -0.82 ± 0.04.

As for F27P, the abundance fitness is -0.74 ± 0.081.

Consider F27R, for which the abundance fitness is -0.905 ± 0.054.

Take F27Q: the abundance fitness was -0.815 ± 0.12.

For T45G, the abundance fitness is -0.851 ± 0.043.

With T45C, the abundance fitness was -0.771 ± 0.038.

Regarding T45Y, the abundance fitness is -0.841 ± 0.045.

Turning to T45L, the abundance fitness was -0.836 ± 0.042.

Turning to D15T, the abundance fitness was -0.213 ± 0.048.

For D15I, the abundance fitness is -0.518 ± 0.045.

As to D15N, the abundance fitness was -0.022 ± 0.037.

Consider D15E, for which the abundance fitness worked out at 0.05 ± 0.05.

For the variant D15F, the abundance fitness was -0.241 ± 0.027.

Turning to E53Y, the abundance fitness was -0.121 ± 0.027.

With E53H, the abundance fitness was -0.003 ± 0.032.

In the case of E53R, the abundance fitness was -0.019 ± 0.028.

E53F: the abundance fitness is -0.337 ± 0.03.

Regarding E53V, the abundance fitness is -0.053 ± 0.028.

Turning to D35W, the abundance fitness is -0.337 ± 0.054.

D35F: the abundance fitness is -0.182 ± 0.03.

As for D35N, the abundance fitness is -0.025 ± 0.03.

As for D35T, the abundance fitness is -0.098 ± 0.034.

Regarding D35P, the abundance fitness was -0.126 ± 0.044.

With Y10D, the abundance fitness is -1.04 ± 0.13.

In the case of Y10E, the abundance fitness was -0.838 ± 0.46.

In the case of Y10S, the abundance fitness was -0.623 ± 0.042.

As for Y10V, the abundance fitness is -0.728 ± 0.06.

Take G36I: the abundance fitness is -0.88 ± 0.051.

As to G36C, the abundance fitness is -0.664 ± 0.035.

Consider G36K, for which the abundance fitness is -0.344 ± 0.097.

Take G36Q: the abundance fitness was -0.557 ± 0.09.
